This data set addresses T1, ZBTB10 ZF1-2 R767Q (human, UniProt Q96DT7 713-779, R767Q).
T1 sequence: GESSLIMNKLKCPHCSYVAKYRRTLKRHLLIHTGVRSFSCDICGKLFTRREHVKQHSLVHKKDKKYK
Briefly: X-ray crystallography; Zn2+; 1.9 A, P1; ITC at 20 C, ~30 uM dsDNA in cell, ~300 uM protein in syringe; proteins dialyzed in 20 mM Tris-HCl pH 7.5, 150 mM NaCl (ITC buffer not separately stated). The following applies: protein: recombinant; tags: MBP removed by PreScission; 5' overhang 1 nt on each strand (T and A).

B1: TTAGGG crystal duplex (dsDNA)
DNA 1: TTAGGGTTATA
DNA 2: ATATAACCCTA
Consider B1, for which the binding result is “binds”.

Values taken from publication PMC9958480, “Structural insights into the recognition of telomeric variant repeat TTGGGG by broad-complex, tramtrack and bric-à-brac - zinc finger protein ZBTB10”.
